Experimental data reported in the nanobody polyreactivity screen of Harvey et al. (2022).

Assay: yeast display, Sf9 membrane polyspecificity reagent, FACS + sequencing; frameworks hold sequencing errors
Summary of the method: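 Genes from sorted yeast were amplified by colony PCR, read by MiSeq 2 × 250 sequencing and filtered on CDR length. These cells carried a synthetic nanobody library in Saccharomyces cerevisiae BJ5465 and were sorted by FACS into low and high (top ~1%) gates on anti-HA and streptavidin fluorescence. Polyreactivity is labelled according to the gate of origin.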

Row | Sequence | polyreactivity (PSR sort gate)
1 | QVQLVESGGGLVQAGGSLRLSCAASGRIFTHNSMGWYRQAPGKERELVAAISYSGVSTYYADSVKGRFTISRDTAKNTVFLQMNSLKPEDTAVYYCNAVWEYSGKSDYWGQGTQVSVSS | low polyreactivity
2 | QVQLVESGGGLVHAGGSLRLSCAASGRIFDGNTMGWYRQAPGKERELVAAISGGGSTDYADSVKGRFTISRDNAKNTVYLQMNSLKPEDTAVYYCAATTGPVPLKGDYWGQGTQVTVSS | low polyreactivity
3 | QVQLVESGGGLVQAGGSLRLSCAASGFIFYYYAMGWYRQAPGKERELVAAISVRGGRTYYADSVKGRFTISRDNAKNTVYLQMNSLKPEDTAVYYCAADLYNRGRGSSQSYRTGYDYWGQGTQVTVSS | high polyreactivity
4 | QVQLVESGGGLVQAGGILRLSCAASGRIFHWYAMGWYRQAPGKERELVDAITDGYSTYYADSVNGRYKISRDNAKNTVYLQMNSLKPEETAVYYCAADVGYSPYVFGVTRYYKYDYWGQGTQVTVSS | low polyreactivity
5 | QVQLVESGGGLVQAGGSLRLSCAASGRTFDYYAMGWYRQAPGKERELVAAITKDGGSTYYADSVKGRFTISRDNAKNTVYLQMNSLIPEDTAVYYCAADGPPQYYDPIHYDYWGQGTQVTVSS | low polyreactivity
6 | QVQLVESGGGLVQAGGSLRLSCAASGFTFSDYAMGWYRQAPGKERELVAAISSSGGSTYYADSVKGRFTISRDNAKNTVYLQMNSLKPEDNAVYYCAASSYSFRYRYDTWWYYYWGQGTQVTVSS | high polyreactivity
7 | QFQLVESGGGLDQAGGSLRLSCAASGITFGNYAMGWYRQAPGKERELVAAITGSGGRTNYADSVKGRFTISRDNAKNTVYLQMNSLKPEDTAVYYCNRRQYGRKKQYDYWGQGTQVTVSS | high polyreactivity
8 | QVQLVESGGGIVQAGGSLRLSCAASGRIFGIYERGWLRQAPGKEREMVAGITRGDRTYADSVKGRFTISRDNAKNTVYLQMNSLKPVDTAVYYCNADVYPYKLALPAGMGYWGQGTQVTVSS | high polyreactivity
9 | QVQLVESGGGLLQAGGTLRLSCAASGFIFGRYAMGWYRQAPGKERELVADISWNGGSTYYADYVKGRFTISRDNAKNTVYLQMNSLKPEDTAVYYCAADYYWASFKYPYLRPYDYWGQGTQVTVSS | high polyreactivity
10 | QVQLVESGGCLVQAGGSLRFSCAASGSTFGWYAMGWYRHAPGKERELVAAITSVGSTYYADYVKGRFRISRDNAKNTVYLQMNSLKPEDTAVYYCAKRFGSGWAWFGYWGQGTQVTVSS | low polyreactivity
11 | QVQLVESGGGLVQAGGSLRLSCAASGPIFYRYAMGWYRQAPGKERELVAAISRGGRTYYADSVKGRFTISRDNAKNTVYLQMNRLKPEDTAVYYCATTYSLGSWGYDYWGQGTQVTVSS | high polyreactivity
12 | QVQLVESGGGLVQAGGSLRLSCAASGIIFSYYAMGWYRQAPGKERELVAAITWSVGSTDYADSVKGRFTISRDNAKNTVYLQMNSLKPEDTAVYYCAATITTLDWDDRYDYWGQGTQETVSS | low polyreactivity
13 | QVQLVESGGGLVQAGGSLRLSCAASGNILGSYAMGWYRQAPWKQRELVAAITWSGGTTYYADSVKGRFTISCDNAKNTVYLQMNSLKPEDTAVYYCAVEIVLTRFDYWGQGTQVTVSS | low polyreactivity
14 | QVQLVESGGGLVQAGGSLRLSCASSGSTIRSYAMGWYRQAPGKERELVAVISSGDSTYYADSVKGRFTISRDNAKNTVYLQMNSLKPDDTAVYYCAADSYVLGRWYGYWGQGTQVTVSS | low polyreactivity
15 | QVQLVESGGVLVQAGGSLRLSCAASGFTFLAYAMGWYRQAPGKERELVAAINSSDGTTHYADSVKGRFTISRDNAKITVYLQMNSLKPEDTAVYYCAVSQVRTGEGYHYWGQGTQVTVSS | low polyreactivity
16 | QVQLVESGGGLVQAGGSLRLSCAASGSTFEYYAMGWYRQAPGKERELVATITLIAGSTYADSVKGRFTISRDNAKNTVYLQMNSLKPEDTAVYYCAADDGGYESPEFVYGGRGDYWGQGTQVTVSS | low polyreactivity
17 | QVQLVESGRGLVQAGGRLRLSCAASGRTFSRNAMGRYRQAPGKERELVAAISFRGVSTYYADSEKGRFTISRDNAKNTVYLQLNSLKPEDTAVYYCARRYTSKGGYDYWGQGTQVTVSS | high polyreactivity
